According to patent publication US20240108716A1:

What was measured:
[1] = molecular target: SARS-CoV-2 S peptide 820 (C-GGG-…) (SARS-CoV-2); assay: ELISA, control for CPMV820 on immobilised peptide
[2] = molecular target: SARS-CoV-2 S peptide 469 (C-GGG-…) (SARS-CoV-2); assay: ELISA, control for CPMV469 on immobilised peptide
[3] = molecular target: SARS-CoV-2 S peptide 420 (C-GGG-…) (SARS-CoV-2); assay: ELISA, control for CPMV420 on immobilised peptide
[4] = molecular target: SARS-CoV-2 S peptide 460 (C-GGG-FRKSN) (SARS-CoV-2); assay: ELISA, control for CPMV460 on immobilised peptide
[5] = molecular target: SARS-CoV-2 S peptide 636 (C-GGG-…) (SARS-CoV-2); assay: ELISA, control for CPMV636 on immobilised peptide
[6] = molecular target: SARS-CoV-2 S peptide 106 (C-GGG-…) (SARS-CoV-2); assay: ELISA, control for CPMV106 on immobilised peptide
[7] = molecular target: SARS-CoV-2 S peptide 386 (C-GGG-…) (SARS-CoV-2); assay: ELISA, control for CPMV386 on immobilised peptide
[8] = molecular target: SARS-CoV-2 S peptide 570 (C-GGG-…) (SARS-CoV-2); assay: ELISA, control for CPMV570 on immobilised peptide
[9] = molecular target: SARS-CoV-2 S peptide 454 (C-GGG-…) (SARS-CoV-2); assay: ELISA, control for CPMV454 on immobilised peptide
[10] = molecular target: SARS-CoV-2 S peptide 153 (C-GGG-…) (SARS-CoV-2); assay: ELISA, control for CPMV153 on immobilised peptide
[11] = molecular target: SARS-CoV-2 S peptide 1159 (C-GGG-…) (SARS-CoV-2); assay: ELISA, control for CPMV1159 on immobilised peptide
[12] = molecular target: SARS-CoV-2 S peptide 826 (C-GGG-…) (SARS-CoV-2); assay: ELISA, control for CPMV826 on immobilised peptide
[13] = molecular target: SARS-CoV-2 S peptide 564 (C-GGG-…) (SARS-CoV-2); assay: ELISA, control for CPMV564 on immobilised peptide

Substance: Control plasma of the peptide ELISA of the CPMV-based COVID-19 vaccines (antibody)
- endpoint IgG titer (reciprocal dilution) [1]: 800
- endpoint IgG titer (reciprocal dilution) [2]: 1870
- endpoint IgG titer (reciprocal dilution) [3]: 400
- endpoint IgG titer (reciprocal dilution) [4]: 1470
- endpoint IgG titer (reciprocal dilution) [5]: 100
- endpoint IgG titer (reciprocal dilution) [6]: 400
- endpoint IgG titer (reciprocal dilution) [7]: 266
- endpoint IgG titer (reciprocal dilution) [8]: 1600
- endpoint IgG titer (reciprocal dilution) [9]: 100
- endpoint IgG titer (reciprocal dilution) [10]: 2130
- endpoint IgG titer (reciprocal dilution) [11]: 400
- endpoint IgG titer (reciprocal dilution) [12]: 1600
- endpoint IgG titer (reciprocal dilution) [13]: 1600
